Source: patent US6660836

Key:
[1] = molecular target: Gαq-glutathione S-transferase fusion protein; experiment: hydroxyl radical alkyl 1H/2H exchange footprinting, LC-MS of DNS-amino acids; 50 µM GST-Gaq/100 µM CTP, 200 µM OH radical
[2] = molecular target: Gαq-glutathione S-transferase fusion protein; experiment: hydroxyl radical alkyl 1H/2H exchange footprinting, LC-MS of DNS-amino acids; 30 µM GST-Gaq/15.6 µM CTP, 400 µM OH radical
[3] = molecular target: Gαq-glutathione S-transferase fusion protein; experiment: hydroxyl radical alkyl 1H/2H exchange footprinting normalised to internal reference 2,4-DNP-Leu; 30 µM GST-Gaq/15.6 µM CTP, 400 µM OH radical
[4] = molecular target: Gαq-glutathione S-transferase fusion protein; experiment: hydroxyl radical alkyl 1H/2H exchange footprinting normalised to internal reference 2,4-DNP-Leu; 50 µM GST-Gaq/100 µM CTP, 200 µM OH radical
[5] = molecular target: Gαq-glutathione S-transferase fusion protein; experiment: hydroxyl radical alkyl 1H/2H exchange footprinting, LC-MS of DNS-amino acids; 50 µM GST-Gaq/100 µM CTP, 400 µM OH radical
[6] = molecular target: Gαq-glutathione S-transferase fusion protein; experiment: hydroxyl radical alkyl 1H/2H exchange footprinting normalised to internal reference 2,4-DNP-Leu; 50 µM GST-Gaq/100 µM CTP, 400 µM OH radical

Binder: SNEQKACKVLGI [C-terminal peptide (…) of the third intracellular loop of the 5-hydroxytryptamine2A receptor]
- Δ Isotope Ratio free/Δ Isotope Ratio bound (residue Ala) [1]: 4.5
- Δ Isotope Ratio free/Δ Isotope Ratio bound (residue Asp) [1]: -2
- Δ Isotope Ratio free/Δ Isotope Ratio bound (residue Glu) [1]: 1.8
- Δ Isotope Ratio free/Δ Isotope Ratio bound (residue Gly) [1]: 1.2
- Δ Isotope Ratio free/Δ Isotope Ratio bound (residue Ile) [1]: 2.5
- Δ Isotope Ratio free/Δ Isotope Ratio bound (residue Leu) [1]: 2.3
- Δ Isotope Ratio free/Δ Isotope Ratio bound (residue Lys, diDNS-Lys derivative) [1]: 2.4
- Δ Isotope Ratio free/Δ Isotope Ratio bound (residue Ser) [1]: 0
- Δ Isotope Ratio free/Δ Isotope Ratio bound (residue Val) [1]: 2.4
- Δ Isotope Ratio free/Δ Isotope Ratio bound (residue Ala) [2]: 0.8
- Δ Isotope Ratio free/Δ Isotope Ratio bound (residue Asp) [2]: 0.53
- Δ Isotope Ratio free/Δ Isotope Ratio bound (residue Glu) [2]: 1.2
- Δ Isotope Ratio free/Δ Isotope Ratio bound (residue Gly) [2]: 0.99
- Δ Isotope Ratio free/Δ Isotope Ratio bound (residue Ile) [2]: 1.4
- Δ Isotope Ratio free/Δ Isotope Ratio bound (residue Leu) [2]: 1.3
- Δ Isotope Ratio free/Δ Isotope Ratio bound (residue Lys, diDNS-Lys derivative) [2]: 1.3
- Δ Isotope Ratio free/Δ Isotope Ratio bound (residue Ser) [2]: -1.2
- Δ Isotope Ratio free/Δ Isotope Ratio bound (residue Val) [2]: 1.3
- Protection Factor (residue Ala) [3]: 0.24
- Protection Factor (residue Asp) [3]: 0.16
- Protection Factor (residue Glu) [3]: 0.37
- Protection Factor (residue Gly) [3]: 0.3
- Protection Factor (residue Ile) [3]: 0.41
- Protection Factor (residue Leu) [3]: 0.39
- Protection Factor (residue Lys) [3]: 0.39
- Protection Factor (residue Ser) [3]: -0.35
- Protection Factor (residue Val) [3]: 0.38
- Protection Factor (residue Ala) [4]: 2
- Protection Factor (residue Asp) [4]: -0.77
- Protection Factor (residue Glu) [4]: 0.51
- Protection Factor (residue Gly) [4]: 0.32
- Protection Factor (residue Ile) [4]: 0.62
- Protection Factor (residue Leu) [4]: 0.59
- Protection Factor (residue Lys) [4]: 0.58
- Protection Factor (residue Ser) [4]: 0
- Protection Factor (residue Val) [4]: 0.61
- Δ Isotope Ratio free/Δ Isotope Ratio bound (residue Ala) [5]: 6.3
- Δ Isotope Ratio free/Δ Isotope Ratio bound (residue Asp) [5]: -2.5
- Δ Isotope Ratio free/Δ Isotope Ratio bound (residue Glu) [5]: 6.5
- Δ Isotope Ratio free/Δ Isotope Ratio bound (residue Gly) [5]: 0.5
- Δ Isotope Ratio free/Δ Isotope Ratio bound (residue Ile) [5]: 2.9
- Δ Isotope Ratio free/Δ Isotope Ratio bound (residue Leu) [5]: 3.1
- Δ Isotope Ratio free/Δ Isotope Ratio bound (residue Lys, diDNS-Lys derivative) [5]: 3.1
- Δ Isotope Ratio free/Δ Isotope Ratio bound (residue Ser) [5]: 0
- Δ Isotope Ratio free/Δ Isotope Ratio bound (residue Val) [5]: 2.7
- Protection Factor (residue Ala) [6]: 7.2
- Protection Factor (residue Asp) [6]: -1.5
- Protection Factor (residue Glu) [6]: 6.3
- Protection Factor (residue Gly) [6]: 0
- Protection Factor (residue Ile) [6]: 2.2
- Protection Factor (residue Leu) [6]: 2.4
- Protection Factor (residue Lys) [6]: 2.3
- Protection Factor (residue Ser) [6]: 0
- Protection Factor (residue Val) [6]: 2
